Experimental data from the supplement of paper PMC7125110.
± gives the standard error. This sample holds only a part of the variants without activity.

B1: glmS ribozyme (parent)
chain: AUAAAAGCGCCAGAACUACAGAAAUGUAGUUGACGAGGAGGAGGUUUAUCGAAUUUUCGGCGGAUGCCUCCAAA

Variants of: B1
Experiment: self-cleavage kobs at 2500 uM GlcN6P; higher = faster cleavage; RNA array
Conditions: with glucosamine-6-phosphate
Outline: (§1)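 On sequenced MiSeq chips, barcoded ribozyme variants were made in situ by E. coli RNA polymerase and followed at 37 °C through a hybridised Cy3 probe. Glucosamine-6-phosphate was flowed in at 40 μM to 10 mM in HEPES/KCl/Mg(OAc)2 buffer. Exponential fits to normalised per-tile medians gave kobs, and weighted Michaelis–Menten fits gave kcat and KM.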
G7C G9U G59U was tested, and the “self-cleavage kobs at 2500 uM GlcN6P” value was less than 1e-05 s⁻¹. With G7A G13A C34U the “self-cleavage kobs at 2500 uM GlcN6P” value was less than 1e-05 s⁻¹. U46C C67U was tested, and the “self-cleavage kobs at 2500 uM GlcN6P” value was 0.000469 ± 0.00013 s⁻¹. For A6U C16U A53G C71G, the “self-cleavage kobs at 2500 uM GlcN6P” value was 5.25e-05 ± 2.3e-05 s⁻¹. U56C U57C was tested, and the “self-cleavage kobs at 2500 uM GlcN6P” value was 8.12e-05 ± 1.7e-05 s⁻¹. U45C U47C was tested, and the “self-cleavage kobs at 2500 uM GlcN6P” value was 0.000515 ± 0.00013 s⁻¹. For A6C C11G U49G U65C C68G, the “self-cleavage kobs at 2500 uM GlcN6P” value was less than 1e-05 s⁻¹. With A6U G37C C68U the “self-cleavage kobs at 2500 uM GlcN6P” value was less than 1e-05 s⁻¹. With A6U A36C U55G the “self-cleavage kobs at 2500 uM GlcN6P” value was less than 1e-05 s⁻¹. For A1C U57C, the “self-cleavage kobs at 2500 uM GlcN6P” value was 9.88e-05 ± 2.4e-05 s⁻¹. A6G G51U C58U was tested, and the “self-cleavage kobs at 2500 uM GlcN6P” value was less than 1e-05 s⁻¹. In the case of G44C C70A, the “self-cleavage kobs at 2500 uM GlcN6P” value is reported as less than 1e-05 s⁻¹. For U57G G59U, the “self-cleavage kobs at 2500 uM GlcN6P” value was less than 1e-05 s⁻¹. In the case of U55G G63U, the “self-cleavage kobs at 2500 uM GlcN6P” value is reported as less than 1e-05 s⁻¹. A6U C34A G44A was tested, and the “self-cleavage kobs at 2500 uM GlcN6P” value was less than 1e-05 s⁻¹. For U46A A48G C50U, the “self-cleavage kobs at 2500 uM GlcN6P” value was less than 1e-05 s⁻¹. With G7A A12G A15U G44U U45A A53C the “self-cleavage kobs at 2500 uM GlcN6P” value was less than 1e-05 s⁻¹. With A6C G38U A42G U57C the “self-cleavage kobs at 2500 uM GlcN6P” value was less than 1e-05 s⁻¹. With A6G C11G U69G the “self-cleavage kobs at 2500 uM GlcN6P” value was 7.2e-05 ± 2.9e-05 s⁻¹. In the case of G7A U49A A52C, the “self-cleavage kobs at 2500 uM GlcN6P” value is reported as less than 1e-05 s⁻¹. In the case of A6G C34A C50U U69A, the “self-cleavage kobs at 2500 uM GlcN6P” value is reported as less than 1e-05 s⁻¹. With U57A G60A C67G the “self-cleavage kobs at 2500 uM GlcN6P” value was 0.000109 ± 3.2e-05 s⁻¹. For G7A C8A G41U, the “self-cleavage kobs at 2500 uM GlcN6P” value was less than 1e-05 s⁻¹. In the case of A1U G41U C70G C71U, the “self-cleavage kobs at 2500 uM GlcN6P” value is reported as 0.000249 ± 4e-05 s⁻¹. With A48G A52U G59U the “self-cleavage kobs at 2500 uM GlcN6P” value was less than 1e-05 s⁻¹. With A42U U57G the “self-cleavage kobs at 2500 uM GlcN6P” value was less than 1e-05 s⁻¹. U45G G60U G62C C70U was tested, and the “self-cleavage kobs at 2500 uM GlcN6P” value was less than 1e-05 s⁻¹. For A6U C50U C68G C71A, the “self-cleavage kobs at 2500 uM GlcN6P” value was 8.39e-05 ± 3e-05 s⁻¹. For A42G U47G C67U, the “self-cleavage kobs at 2500 uM GlcN6P” value was 0.0013 ± 0.00029 s⁻¹. A6U C10U A12C G60A C67U was tested, and the “self-cleavage kobs at 2500 uM GlcN6P” value was less than 1e-05 s⁻¹. A6U A12U U46C C50U was tested, and the “self-cleavage kobs at 2500 uM GlcN6P” value was less than 1e-05 s⁻¹. A6C G29U G40A U49G C68U was tested, and the “self-cleavage kobs at 2500 uM GlcN6P” value was less than 1e-05 s⁻¹. A6C A15U G43A C71U was tested, and the “self-cleavage kobs at 2500 uM GlcN6P” value was less than 1e-05 s⁻¹. U55A U57G was tested, and the “self-cleavage kobs at 2500 uM GlcN6P” value was 2.56e-05 ± 7.4e-06 s⁻¹. For G7A G38C A64C, the “self-cleavage kobs at 2500 uM GlcN6P” value was less than 1e-05 s⁻¹. In the case of A6C C16G U45G G59U, the “self-cleavage kobs at 2500 uM GlcN6P” value is reported as less than 1e-05 s⁻¹. G43U G66U C71G was tested, and the “self-cleavage kobs at 2500 uM GlcN6P” value was less than 1e-05 s⁻¹. G60C C68G C70U was tested, and the “self-cleavage kobs at 2500 uM GlcN6P” value was less than 1e-05 s⁻¹. For A6U G7C C8G, the “self-cleavage kobs at 2500 uM GlcN6P” value was less than 1e-05 s⁻¹. For A6C A33U G37C A42U A48C U56A G59U C68G, the “self-cleavage kobs at 2500 uM GlcN6P” value was less than 1e-05 s⁻¹. For U2C A6C G60A, the “self-cleavage kobs at 2500 uM GlcN6P” value was less than 1e-05 s⁻¹. A6C A39C C68U was tested, and the “self-cleavage kobs at 2500 uM GlcN6P” value was less than 1e-05 s⁻¹. For U45A G51C G60A C71U, the “self-cleavage kobs at 2500 uM GlcN6P” value was less than 1e-05 s⁻¹. U45C U54G U56A was tested, and the “self-cleavage kobs at 2500 uM GlcN6P” value was 0.000428 ± 0.00012 s⁻¹. G44A C50G was tested, and the “self-cleavage kobs at 2500 uM GlcN6P” value was less than 1e-05 s⁻¹. In the case of A6C G44U U54G U57C, the “self-cleavage kobs at 2500 uM GlcN6P” value is reported as less than 1e-05 s⁻¹. C50G C61A C67U was tested, and the “self-cleavage kobs at 2500 uM GlcN6P” value was 5.47e-05 ± 2.1e-05 s⁻¹. G7C A52U U54G C61U was tested, and the “self-cleavage kobs at 2500 uM GlcN6P” value was less than 1e-05 s⁻¹. For A53G U54G U55G C61A C70U, the “self-cleavage kobs at 2500 uM GlcN6P” value was 7.21e-05 ± 2.5e-05 s⁻¹. In the case of G7A A14G G38A, the “self-cleavage kobs at 2500 uM GlcN6P” value is reported as less than 1e-05 s⁻¹.

Variants of: B1
Experiment: self-cleavage kobs at 640 uM GlcN6P; higher = faster cleavage; RNA array
Conditions: with glucosamine-6-phosphate
Outline: as §1
For U46C C67U, the “self-cleavage kobs at 640 uM GlcN6P” value was 0.000202 ± 5.2e-05 s⁻¹. G51A G66A U69A was tested, and the “self-cleavage kobs at 640 uM GlcN6P” value was 0.000177 ± 7.9e-05 s⁻¹. In the case of G43A U49G C50G U57C, the “self-cleavage kobs at 640 uM GlcN6P” value is reported as less than 1e-05 s⁻¹. For A52C U54G, the “self-cleavage kobs at 640 uM GlcN6P” value was less than 1e-05 s⁻¹. For U56C U57C, the “self-cleavage kobs at 640 uM GlcN6P” value was 7.5e-05 ± 2.2e-05 s⁻¹. In the case of U45C U47C, the “self-cleavage kobs at 640 uM GlcN6P” value is reported as 0.000179 ± 5.5e-05 s⁻¹. G51U C70A was tested, and the “self-cleavage kobs at 640 uM GlcN6P” value was 5.2e-05 ± 1.5e-05 s⁻¹. C50G A53U A64G was tested, and the “self-cleavage kobs at 640 uM GlcN6P” value was less than 1e-05 s⁻¹. In the case of G44C C70A, the “self-cleavage kobs at 640 uM GlcN6P” value is reported as less than 1e-05 s⁻¹. With U57G G59U the “self-cleavage kobs at 640 uM GlcN6P” value was less than 1e-05 s⁻¹. With C50A C67U C70G the “self-cleavage kobs at 640 uM GlcN6P” value was 6.04e-05 ± 2.3e-05 s⁻¹. For U55G G63U, the “self-cleavage kobs at 640 uM GlcN6P” value was less than 1e-05 s⁻¹. For G60C C70A, the “self-cleavage kobs at 640 uM GlcN6P” value was less than 1e-05 s⁻¹. U46A A48G C50U was tested, and the “self-cleavage kobs at 640 uM GlcN6P” value was less than 1e-05 s⁻¹. With C58U G59C C61U C71A the “self-cleavage kobs at 640 uM GlcN6P” value was less than 1e-05 s⁻¹. For U57A G60A C67G, the “self-cleavage kobs at 640 uM GlcN6P” value was 6.42e-05 ± 2.2e-05 s⁻¹. In the case of G43C G44U G60U, the “self-cleavage kobs at 640 uM GlcN6P” value is reported as less than 1e-05 s⁻¹. With A48G A52U G59U the “self-cleavage kobs at 640 uM GlcN6P” value was less than 1e-05 s⁻¹. For A42U U57G, the “self-cleavage kobs at 640 uM GlcN6P” value was less than 1e-05 s⁻¹. In the case of U45G G60U G62C C70U, the “self-cleavage kobs at 640 uM GlcN6P” value is reported as less than 1e-05 s⁻¹. In the case of A42G U47G C67U, the “self-cleavage kobs at 640 uM GlcN6P” value is reported as 0.00108 ± 0.00019 s⁻¹. With U55A U57G the “self-cleavage kobs at 640 uM GlcN6P” value was 2.18e-05 ± 1e-05 s⁻¹. A52C G59A U69G was tested, and the “self-cleavage kobs at 640 uM GlcN6P” value was less than 1e-05 s⁻¹. G43U G66U C71G was tested, and the “self-cleavage kobs at 640 uM GlcN6P” value was less than 1e-05 s⁻¹. In the case of U54A C67U C68A, the “self-cleavage kobs at 640 uM GlcN6P” value is reported as 6.98e-05 ± 2.2e-05 s⁻¹. U65G G66C was tested, and the “self-cleavage kobs at 640 uM GlcN6P” value was 0.000223 ± 4.9e-05 s⁻¹. With U47C G59U the “self-cleavage kobs at 640 uM GlcN6P” value was less than 1e-05 s⁻¹. With G60C C68G C70U the “self-cleavage kobs at 640 uM GlcN6P” value was less than 1e-05 s⁻¹. In the case of U57C G62C C68G, the “self-cleavage kobs at 640 uM GlcN6P” value is reported as less than 1e-05 s⁻¹. With U69C C70G the “self-cleavage kobs at 640 uM GlcN6P” value was 4.82e-05 ± 1.6e-05 s⁻¹. In the case of U45A G51C G60A C71U, the “self-cleavage kobs at 640 uM GlcN6P” value is reported as less than 1e-05 s⁻¹. For U45C U54G U56A, the “self-cleavage kobs at 640 uM GlcN6P” value was 0.000123 ± 2.3e-05 s⁻¹. With U46G G63A C70G the “self-cleavage kobs at 640 uM GlcN6P” value was 5.25e-05 ± 2.2e-05 s⁻¹. G44A C50G was tested, and the “self-cleavage kobs at 640 uM GlcN6P” value was less than 1e-05 s⁻¹. In the case of C50G C61A C67U, the “self-cleavage kobs at 640 uM GlcN6P” value is reported as 0.000392 ± 0.0001 s⁻¹. In the case of C68A U69G, the “self-cleavage kobs at 640 uM GlcN6P” value is reported as 9.62e-05 ± 3.5e-05 s⁻¹. For A53G U54G U55G C61A C70U, the “self-cleavage kobs at 640 uM GlcN6P” value was 0.000595 ± 0.00019 s⁻¹. U46G U57C was tested, and the “self-cleavage kobs at 640 uM GlcN6P” value was less than 1e-05 s⁻¹. In the case of A52G U54A C68U, the “self-cleavage kobs at 640 uM GlcN6P” value is reported as 6.73e-05 ± 2e-05 s⁻¹.

Variants of: B1
Experiment: self-cleavage kobs at 10000 uM GlcN6P; higher = faster cleavage; RNA array
Conditions: with glucosamine-6-phosphate
Outline: as §1
With U46C C67U the “self-cleavage kobs at 10000 uM GlcN6P” value was 0.000426 ± 8.9e-05 s⁻¹. For A6U G37C C68U, the “self-cleavage kobs at 10000 uM GlcN6P” value was less than 1e-05 s⁻¹. With G44C C70A the “self-cleavage kobs at 10000 uM GlcN6P” value was less than 1e-05 s⁻¹. With U57G G59U the “self-cleavage kobs at 10000 uM GlcN6P” value was less than 1e-05 s⁻¹. With G60C C70A the “self-cleavage kobs at 10000 uM GlcN6P” value was less than 1e-05 s⁻¹. A1U G41U C70G C71U was tested, and the “self-cleavage kobs at 10000 uM GlcN6P” value was 0.000232 ± 6e-05 s⁻¹. In the case of U55A U57G, the “self-cleavage kobs at 10000 uM GlcN6P” value is reported as 7.86e-05 ± 1.2e-05 s⁻¹. In the case of U65G G66C, the “self-cleavage kobs at 10000 uM GlcN6P” value is reported as 0.00137 ± 0.00016 s⁻¹. With U45C U54G U56A the “self-cleavage kobs at 10000 uM GlcN6P” value was 0.000928 ± 0.00017 s⁻¹. In the case of G44A C50G, the “self-cleavage kobs at 10000 uM GlcN6P” value is reported as less than 1e-05 s⁻¹.
